Results: US6358897B1, “Alkyl trypsin compositions and methods of use in contact lens cleaning and disinfecting systems” (Alcon Laboratories, Inc., priority 1996, dated 2002)

System: azocasein
Assay: Stability of Et-trypsin and trypsin in a disinfecting composition (Example 2B), azocasein method
Format: physicochemical
Settings: 37° C., Example 2B composition, 50 μg/ml
Method: Azocasein Method The following solutions are used in this assay: 1) Buffer solution: 0.05 M sodium phosphate buffer containing 0.9% sodium chloride, pH 7.6. 2) Substrate solution: 2 mg/ml azocasein in the buffer solution mentioned above. The assay is initiated by mixing 1 ml of an appropriately diluted (such that the enzyme activity is in the range of standard curve) enzyme composition in phosphate buffer with 2 ml of azocasein substrate solution (2 mg/ml). After incubation at 37° C. for 20 minutes, the mixture is removed from the incubator and 1 ml of trichloroacetic acid to (14% w/v) is added to stop the enzyme reaction. The mixture is vortexed well and allowed to stand at room temperature for 20 minutes. After centrifuging at 2500 rpm (with a Beckman GS-6R Centrifuge) for 15 minutes, the supernatant is filtered with a serum sampler. 2 ml of the clear yellow filtrate is then adjusted to a neutral pH with 2 ml of 0.5 N sodium hydroxide and the absorbance of 440 nm wavelength light is measured with a spectrophotometer. The amount of azocasein hydrolyzed is calculated based on a standard curve of known concentrations of azocasein solution developed under identical conditions. An enzyme activity unit (“AZ U”) is defined as that amount of enzyme which hydrolyzes 1 μg of azocasein substrate/minute at 37° C. The following is an example of the stability of Et-trypsin or Me-trypsin in a disinfecting composition of the present invention as compared to an analogous composition containing trypsin. The enzymes were solubilized in the Example 2B composition. The compositions were stored at 37° or 50° C. for 8 days or 30 hours, respectively. At various time points, enzyme activity was assayed using the azocasein method.

## ethyl trypsin [Et-Trypsin]
1 Hour
  % Activity Remaining: 100%
2 Hours
  % Activity Remaining: 100%
4 Hours
  % Activity Remaining: 95.2%
6 Hours
  % Activity Remaining: 99.3%
8 Hours
  % Activity Remaining: 97.9%
1 day
  % Activity Remaining: 89.7%
2 days
  % Activity Remaining: 82.5%
4 days
  % Activity Remaining: 76.4%
8 days
  % Activity Remaining: 65.6%
